Measured values published in article PMC9267027, “Discovery of a New Microbial Origin Cold-Active Neopullulanase Capable for Effective Conversion of Pullulan to Panose” (International Journal of Molecular Sciences, 2022).
“And” between values parts separate entries of the source, which are not always exact repeats. Equal values may be shown once.

Target: the molecule itself
Test: AUC; sedimentation velocity, 50 mM Na2HPO4-NaH2PO4 buffer pH 7.0, 20 °C, 38,000 rpm, absorbance at 280 nm, c(s) model in SEDFIT; oligomeric state

B1: Maltogenic amylase (MAase) ThMA from the Thermus strain (enzyme)
chain: MRKEAIHHRSTDNFAYAYDSETLHLRLQTKKNDVDHVELLFGDPYEWHDGAWQFQTMPMRKTGSDGLFDYWLAEVKPPYRRLRYGFVLRAGGEKLVYTEKGFYHEAPSDDTAYYFCFPFLHRVDLFQAPDWVKDTVWYQIFPERFANGNPAISPKGARPWGSEDPTPTSFFGGDLQGIIDHLDYLADLGITGIYLTPIFRAPSNHKYDTADYFEIDPHFGDKETLKTLVKRCHEKGIRVMLDAVFNHCGYEFAPFQDVLKNGAASRYKDWFHIREFPLQTEPRPNYDTFAFVPHMPKLNTAHPEVKRYLLDVATYWIREFDIDGWRLDVANEIDHQFWREFRQAVKALKPDVYILGEIWHDAMPWLRGDQFDAVMNYPLADAALRFFAKEDMSASEFADRLMHVLHSYPKQVNEAAFNLLGSHDTPRLLTVCGGDVRKVKLLFLFQLTFTGSPCIYYGDEIGMTGGNDPECRKCMVWDPEKQNKELYEHVKQLIALRKQYRALRRGDVAFLTADDEVNHLVYAKTDGNETVMIIINRSNEAAEIPMPIDARGKWLVNLLTGERFAAEAETLCVSLPPYGFVLYAVESW
notes: ThMA, maltogenic amylase of a Thermus strain (AAC15072.1); used as the control in analytical ultracentrifugation; the construct is not described
stoichiometry N: 2 and 4
